Experimental data: patent US20050058639A1 (AstraZeneca / MedImmune, published 2005)
Changes are numbered by the printed parent chain.

T1: human RANTES (human, UniProt P13501 24-91)
T1 construct: also called hRANTES
T1 sequence (looked up): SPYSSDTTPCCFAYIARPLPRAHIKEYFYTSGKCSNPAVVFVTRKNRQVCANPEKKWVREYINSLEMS

T2: recombinant human MCP-2 (human, UniProt P80075 24-99)
T2 construct: also called rhMCP-2
T2 sequence (looked up): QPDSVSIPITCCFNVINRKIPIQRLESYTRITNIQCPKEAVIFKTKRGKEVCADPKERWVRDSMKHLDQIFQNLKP

T3: human MIP-1-alpha (human, UniProt P10147 24-92, limits assumed)
T3 construct: also called hMIP-1-alpha
T3 sequence (looked up): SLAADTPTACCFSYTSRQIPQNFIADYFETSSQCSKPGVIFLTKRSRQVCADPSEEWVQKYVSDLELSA

T4: human GRO/MGSA (human, UniProt P09341 35-107)
T4 construct: also called hGRO/MGSA; GRO-alpha
T4 sequence (looked up): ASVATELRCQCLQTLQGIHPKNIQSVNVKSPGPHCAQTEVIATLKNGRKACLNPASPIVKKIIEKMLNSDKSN

B1: anti-MCP-1 mAb 3.2 (antibody, V domains shown)
VH: QVQLVQSGAEVKKPGASVKVSCKVSGYTLSELSMHWVRQAPGKGLEWMGGFDPEDGEIIHAQKFQGRVTMTEDTSTDTAYMELSSLRSEDTAVYYCATGDFWSGYYLDWWGQGTLVTVSS
VL: EIVMMQSPATLSVSPGERATLSCRASQSVNSNLAWYQQKPGQAPRLLINGASTRATGIPARFSGSGSGTEFTLTISSLQSEDFAIYYCQQYNDWPTFTFGGGTKVEINR
notes: also called 3.2 (neat)
B2: anti-MCP-1 mAb 1.6.1 (antibody, V domains shown)
VH: QVQLVQSGAEVKKPGASVKVSCKVSGYTLTELSMHWVRQAPGKGLEWMGGFDPEDGETIYAQKFQGRVTMTEDTSTDTAYMELSSLRSEDTAVYYCATWYSGIYLAFDIWGQGTMVTVSS
VL: EIVLTQSPDFQSVTPKEKVTITCRASQSIGSSLHWYQQKPDQSPKLLIKYASQSFSGVPSRFSGSGSGTDFTLTINSLEAEDAATYYCHQSSSLPHTFGGGTKVEIKR
B3: anti-MCP-1 mAb 1.1.1 (antibody, human IgG2, kappa, V domains shown)
VH: QVQLVQSGAEVKKPGASVKVSCKVSGYTLTELSMHWVRQAPGNGLEWMGGFDPEDGETIYAQRFQGRVVMTEDPSTDTAYMELSSLRSEDTAVYYCATNEFWSGYFDYWGQGTLVTVSS
VL: DIVMTQSPDSLAMSLGERATINCKSSQSVLYSSNNKNYLVWYQQKPGQPPKLLIYWASIRESGVPDRFSSSGSETDFTLTISSLQAEDVAVYYCQQYFSSPWTFGQGTKVEIKR
B4: anti-MCP-1 mAb 1.8.1 (antibody, V domains shown)
VH: B3 VH with Y27H, T28I, L29F, M34I, N43K, R63K, V69T, P74T, A79V, E100D
VL: DIVMTQSPGSLAVSLGERATINCKSSQSILFRSNNKNYLTWYQQKPGQPPKLLIYWASIRESGVPDRFSGSGSGSNFTLTITSLQAEDVAIYYCQQYYSSPWTFGQGTKVEIKR
B5: anti-MCP-1 mAb 1.5.1 (antibody, V domains shown)
VH: B3 VH with N43K, G56D, R63K, V69T, P74T, Y95F, E100D, Y108C, G110D
VL: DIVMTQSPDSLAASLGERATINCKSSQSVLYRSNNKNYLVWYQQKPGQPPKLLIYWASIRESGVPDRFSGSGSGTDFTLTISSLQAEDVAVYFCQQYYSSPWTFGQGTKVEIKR
B6: anti-MCP-1 mAb 1.10.1 (antibody, V domains shown)
VH: B3 VH with N43K, R63K, V69T, P74T
VL: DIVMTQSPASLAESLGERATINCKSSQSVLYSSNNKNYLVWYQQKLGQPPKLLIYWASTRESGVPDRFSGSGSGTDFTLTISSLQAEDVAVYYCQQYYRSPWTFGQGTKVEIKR
B7: anti-MCP-1 mAb 1.11.1 (antibody, V domains shown)
VH: B3 VH with L4V, K13N, Y27S, N43K, R63K, V69T, P74T, A79V, E100D
VL: B3 VL with M13V, N22T, S28T, P46S, Y55H, S70G, E74G, F98Y

These binders were tested against T5, human monocyte chemo-attractant protein-1 (MCP-1) (human, UniProt P13500 24-99) (assay: ELISA, hybridoma supernatant on coated MCP-1).
T5 construct: 76-residue recombinant protein from E. coli, bought (PeproTech); also called hMCP-1(MCAF); human MCP-1
Method: Selection of candidate antibodies for ELISA. After 14 days of culture, hybridoma supernatants were screened for MCP-1-specific monoclonal antibodies. The ELISA plates (Fisher, Cat. No. 12-565-136) were coated with 50 μl/well of MCP-1 (2 μg/mL) in Coating Buffer (0.1 M Carbonate Buffer, pH 9.6, NaHCO₃8.4 g/L), then incubated at 4° C. overnight. After incubation, the plates were washed with Washing Buffer (0.05% Tween 20 in PBS) three times. 200 μl/well Blocking Buffer (0.5% BSA, 0.1% Tween 20, 0.01% Thimerosal in 1× PBS) were added and the plates incubated at room temperature for 1 hour. After incubation, the plates were washed with Washing Buffer three times. 50 μL/well of hybridoma supernatants, and positive and negative controls were added and the plates incubated at room temperature for 2 hours.
The positive control used throughout was XMG2 MCP-1 Group 1, footpad N160-7 and the negative control was XMG2 KLH Group 1, footpad L627-6. After incubation, the plates were washed three times with Washing Buffer. […] In the secondary screen, three sets of samples (positives in first screening) were screened, one set for hIgG detection, one set for hKappa detection, and one set for hlambda detection. After incubation, the plates were washed three times with Washing Buffer. 100 μL/well of TMB (BioFX Lab. Cat. #TMSK-0100-01) were added and the plates allowed to develop for about 10 minutes (until negative control wells barely started to show color), then 50 μL/well stop solution (TMB Stop Solution (BioFX Lab. Cat. #STPR-0100-01) were added and the plates read on an ELISA plate reader at wavelength 450 nm. The OD readings from the positive wells are presented in Table 9.

T5 sequence (P13500 24-99): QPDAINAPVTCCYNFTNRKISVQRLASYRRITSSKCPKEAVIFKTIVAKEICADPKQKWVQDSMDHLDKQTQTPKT

| Binder | ELISA OD-MCP-1 [OD450] |
| --- | --- |
| B1 | 3.96 |
| B2 | 3.92 |
| B3 | 3.64 |
| B4 | 3.47 |
| B5 | 0.51 |
| B6 | 3.85 |
| B7 | 3.9 |

The binders below were run against T1, human RANTES (assay: ELISA, coated antigen).
Method: (§1) Determining cross-reactivity of anti-MCP-1 antibodies with other chemokines. ELISA plates (Fisher Cat. No. 12-565-136) were coated with 50 μl/well of MCP-1, MCP-2, MCP-3, MCP-4, RANTES, GRO-alpha, MIP-1 alpha, eotaxin, rat MCP-1 and mouse JE (2 μg/ml) in coating buffer (0.1 M carbonate buffer, pH 9.6, NaHCO₃ 8.4 g/L, then incubated at 4° C. overnight. After incubation, the plates were washed with washing buffer (0.05% Tween 20 in PBS) three times. 200 μL/well blocking buffer (0.5% BSA, 0.1% Tween 20, 0.01% Thimerosal in 1×PBS) were added and the plates incubated at room temperature for 1 hour. After incubation, the plates were washed with washing buffer three times. 50 μL/well of hybridoma supernatants, and positive and negative controls (positive control was anti-MCP-1 antibody purchased from R&D Sciences, and negative control was an antibody to Keyhole Limpet Hemocyanin produced at Abgenix) were added and the plates incubated at room temperature for 2 hours. After incubation, the plates were washed three times with washing buffer. […] After incubation, the plates were washed three times with washing buffer and 100 μL/well of TMB (BioFX Lab. Cat. #TMSK-0 100-01) was added and the plates allowed to develop for about 10 minutes.

| Binder | ELISA OD [OD450] |
| --- | --- |
| B1 | 0.043 |
| B2 | 0.046 |
| B3 | 0.044 |
| B4 | 0.045 |
| B5 | 0.049 |
| B6 | 0.042 |
| B7 | 0.042 |

These binders were tested against rat MCP-1 (rat, UniProt P14844 24-148) (assay: ELISA, coated antigen).
Method: as §1

Chain of rat MCP-1 (P14844 24-148 limits assumed): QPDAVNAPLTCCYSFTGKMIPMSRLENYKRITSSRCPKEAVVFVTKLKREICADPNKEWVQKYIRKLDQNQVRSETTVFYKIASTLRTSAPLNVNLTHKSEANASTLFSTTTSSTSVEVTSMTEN

| Binder | ELISA OD [OD450] |
| --- | --- |
| B1 | 0.07 |
| B2 | 0.062 |
| B3 | 0.051 |
| B4 | 0.049 |
| B5 | 0.045 |
| B6 | 0.059 |
| B7 | 0.052 |

These binders were tested against T2, recombinant human MCP-2 (assay: ELISA, coated antigen).
Method: as §1

| Binder | ELISA OD [OD450] |
| --- | --- |
| B1 | 0.535 |
| B2 | 0.042 |
| B3 | 0.051 |
| B4 | 0.048 |
| B5 | 0.047 |
| B6 | 0.04 |
| B7 | 0.041 |

Each binder was assayed against T5, human monocyte chemo-attractant … (assay: ELISA, coated antigen).
Method: as §1

| Binder | ELISA OD [OD450] |
| --- | --- |
| B1 | 0.235 |
| B2 | 0.375 |
| B3 | 0.944 |
| B4 | 1.16 |
| B5 | 1.18 |
| B6 | 1.26 |
| B7 | 1.34 |

The binders below were run against T6, recombinant human MCP-4 (human, UniProt Q99616 24-98, limits assumed) (assay: ELISA, coated antigen).
T6 construct: also called rhMCP-4
Method: as §1

T6 sequence (Q99616 24-98 limits assumed): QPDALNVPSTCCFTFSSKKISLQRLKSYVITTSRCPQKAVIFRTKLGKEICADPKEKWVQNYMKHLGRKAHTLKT

| Binder | ELISA OD [OD450] |
| --- | --- |
| B1 | 0.041 |
| B2 | 0.044 |
| B3 | 0.052 |
| B4 | 0.046 |
| B5 | 0.05 |
| B6 | 0.052 |
| B7 | 0.043 |

The binders below were run against T7, human eotaxin (human, UniProt P51671 24-97) (assay: ELISA, coated antigen).
T7 construct: also called hEotaxin
Method: as §1

T7 sequence (P51671 24-97 limits assumed): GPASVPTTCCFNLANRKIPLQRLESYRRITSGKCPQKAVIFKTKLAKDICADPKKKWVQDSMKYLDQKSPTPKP

| Binder | ELISA OD [OD450] |
| --- | --- |
| B1 | 0.194 |
| B2 | 0.042 |
| B3 | 0.042 |
| B4 | 0.047 |
| B5 | 0.043 |
| B6 | 0.05 |
| B7 | 0.049 |

Each binder was assayed against T8, recombinant human MCP-3 (human, UniProt P80098 24-99) (assay: ELISA, coated antigen).
T8 construct: also called rhMCP-3
Method: as §1

T8 sequence (P80098 24-99 limits assumed): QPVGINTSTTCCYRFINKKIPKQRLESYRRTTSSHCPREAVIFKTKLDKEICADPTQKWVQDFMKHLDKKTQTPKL

| Binder | ELISA OD [OD450] |
| --- | --- |
| B1 | 0.449 |
| B2 | 0.046 |
| B3 | 0.064 |
| B4 | 0.054 |
| B5 | 0.069 |
| B6 | 0.047 |
| B7 | 0.043 |

What follows are binders tested against T3, human MIP-1-alpha (assay: ELISA, coated antigen).
Method: as §1

| Binder | ELISA OD [OD450] |
| --- | --- |
| B1 | 0.041 |
| B2 | 0.046 |
| B3 | 0.044 |
| B4 | 0.045 |
| B5 | 0.041 |
| B6 | 0.043 |
| B7 | 0.042 |

Each binder was assayed against T4, human GRO/MGSA (assay: ELISA, coated antigen).
Method: as §1

| Binder | ELISA OD [OD450] |
| --- | --- |
| B1 | 0.042 |
| B2 | 0.046 |
| B3 | 0.047 |
| B4 | 0.06 |
| B5 | 0.048 |
| B6 | 0.043 |
| B7 | 0.042 |

These binders were tested against T9, recombinant mouse JE/MCP-1 (mouse, UniProt P10148 24-148) (assay: ELISA, coated antigen).
T9 construct: also called rmJE/MCP-1
Method: as §1

T9 sequence (P10148 24-148 limits assumed): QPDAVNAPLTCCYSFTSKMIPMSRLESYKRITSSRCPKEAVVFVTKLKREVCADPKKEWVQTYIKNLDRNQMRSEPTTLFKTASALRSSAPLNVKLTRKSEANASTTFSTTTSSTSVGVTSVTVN

| Binder | ELISA OD [OD450] |
| --- | --- |
| B1 | 0.059 |
| B2 | 0.042 |
| B3 | 0.045 |
| B4 | 0.045 |
| B5 | 0.043 |
| B6 | 0.041 |
| B7 | 0.041 |

These binders were tested against T5, human monocyte chemo-attractant … (assay: cell-based or functional assay).

| Binder | IC50 Ca++ Flux [µg/mL] | IC50 Chemotaxis [µg/mL] |
| --- | --- | --- |
| B2 | 1 | 12 |
| B3 | 0.24 | 0.27 |
| B4 | 0.26 | 0.88 |
| B5 | 0.21 | 0.34 |
| B6 | 0.18 | 1.2 |
| B7 | 0.098 | 0.81 |
